Results from US20260216242A1 (ALMAC DISCOVERY, published 2026).
Substitutions are numbered along the chain they refer to. Numbers in names are those of the source. Each block holds one binder with its values, some of them ahead of it.

Target: T1, Human ALPP (leucine zipper) (human)
T1 construct: Soluble human ALPP fused to a disulphide stabilised leucine zipper and a His tag; The whole entry is the construct; also called hALPP; PLAP
T1 chain: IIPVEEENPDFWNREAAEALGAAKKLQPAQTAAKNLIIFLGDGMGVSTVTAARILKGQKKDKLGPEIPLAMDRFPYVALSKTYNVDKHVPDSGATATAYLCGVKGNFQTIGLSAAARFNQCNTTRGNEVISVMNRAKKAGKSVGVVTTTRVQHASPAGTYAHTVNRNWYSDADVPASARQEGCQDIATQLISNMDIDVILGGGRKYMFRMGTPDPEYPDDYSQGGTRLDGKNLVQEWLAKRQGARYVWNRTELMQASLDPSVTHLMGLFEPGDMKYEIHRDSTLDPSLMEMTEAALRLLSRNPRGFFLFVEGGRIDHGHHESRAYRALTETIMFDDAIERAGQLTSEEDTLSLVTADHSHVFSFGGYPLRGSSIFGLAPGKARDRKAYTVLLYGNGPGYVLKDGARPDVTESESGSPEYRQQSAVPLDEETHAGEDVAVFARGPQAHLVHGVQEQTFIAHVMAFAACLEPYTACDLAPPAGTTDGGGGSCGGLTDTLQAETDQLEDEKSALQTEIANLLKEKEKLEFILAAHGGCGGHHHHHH
Assay: BLI, KD app (antigen immobilised on AR2G sensor)
Description: Binding kinetics were determined using the Biolayer Interferometry (BLI) Octet K2 or R4 system (Sartorius). […] For KD apparent measurements, the ALPP proteins were immobilised in sodium acetate pH5 buffer to AR2G sensors using amine coupling. To measure 1:1 interactions, AHC biosensors were used to immobilise Fc-fused proteins. All assays were conducted in HBS-EP with a plate temperature of 25° C. Ka (M⁻¹s⁻¹), Kd (s⁻¹) and KD (nM) values were determined using Octet Data Analysis High Throughput software (Sartorius) for Biolayer Interferometry.

Kd: < 0.01 nM
kon: 332000 M⁻¹ s⁻¹
B1: D10 A06-hFc (S239C + S442C), [G4S]1 linkers (Fc fusion)
chain 1: QVQLVESGGGLVQPGGSLRLSCAASGSIFSVNTMGWYRQAPGKQRDLVAVATSGGTIHYADSVKGRFTISRDNAKNTVYLQMNSLKPEDTAVYYCNLVVPYGMIAGDHDYWGQGTKVTVSSGGGGSEPKSSDKTHTCPPCPAPELLGGPCVFLFPPKPKDTLMISRTPEVTCVVVDVSHEDPEVKFNWYVDGVEVHNAKTKPREEQYNSTYRVVSVLTVLHQDWLNGKEYKCKVSNKALPAPIEKTISKAKGQPREPQVYTLPPSRDELTKNQVSLYCLVKGFYPSDIAVEWESNGQPENNYKTTPPVLDSDGSFFLYSKLTVDKSRWQQGNVFSCSVMHEALHNHYTQKSLCLSPGK
chain 2: QVHLVESGGGLVQAGGSLRLSCAASGRTFLSMGWFRQAPGKEREFVAAISWTGGSTGYADSVKGRFTISRESDKETMYLQMNSLKPEDTAVYYCAARGDVYYGGDDATRYKYWGQGTQVTVSSGGGGSEPKSSDKTHTCPPCPAPELLGGPCVFLFPPKPKDTLMISRTPEVTCVVVDVSHEDPEVKFNWYVDGVEVHNAKTKPREEQYNSTYRVVSVLTVLHQDWLNGKEYKCKVSNKALPAPIEKTISKAKGQPREPQVYTLPPSRDELTKNQVSLTCLVKGFYPSDIAVEWESNGQPENNYKTTPPVLDSDGSFFLTSKLTVDKSRWQQGNVFSCSVMHEALHNHYTQKSLCLSPGK
notes: Biparatopic heterodimer; also called #666

Kd: < 0.01 nM
kon: 374000 M⁻¹ s⁻¹
B2: D10 E10-hFc (S239C + S442C), [G4S]1 linkers (Fc fusion)
chain 1: B1 chain 1
chain 2: QVQLVESGGGLVQAGGSLRLSCAVSGRALSDYNIGWFRQAPGKEREFVARKTWDGSSTRYDDSVKGRFTVSIEDAKNTAYLQMSSLKTEDTAVYYCAAGRYSRARGWEYDYWGQGTQVTVSSGGGGSEPKSSDKTHTCPPCPAPELLGGPCVFLFPPKPKDTLMISRTPEVTCVVVDVSHEDPEVKFNWYVDGVEVHNAKTKPREEQYNSTYRVVSVLTVLHQDWLNGKEYKCKVSNKALPAPIEKTISKAKGQPREPQVYTLPPSRDELTKNQVSLTCLVKGFYPSDIAVEWESNGQPENNYKTTPPVLDSDGSFFLTSKLTVDKSRWQQGNVFSCSVMHEALHNHYTQKSLCLSPGK
notes: Biparatopic heterodimer; also called #668

Kd: 0.048 nM
kon: 271000 M⁻¹ s⁻¹
B3: D10 E06-hFc (S239C + S442C), [G4S]1 linkers (Fc fusion)
chain 1: B1 chain 1
chain 2: QVHLVESGGGLVQAGGSLRLSCAASRRSFSEYAMGWFRQAPGKEREFVAAIGWSGVIEYADSVKGRFTISRDNAKDTVYLQMNSLKPEDTAVYYCAAGLGIRVVSQTPAYWGQGTQVTVSSGGGGSEPKSSDKTHTCPPCPAPELLGGPCVFLFPPKPKDTLMISRTPEVTCVVVDVSHEDPEVKFNWYVDGVEVHNAKTKPREEQYNSTYRVVSVLTVLHQDWLNGKEYKCKVSNKALPAPIEKTISKAKGQPREPQVYTLPPSRDELTKNQVSLTCLVKGFYPSDIAVEWESNGQPENNYKTTPPVLDSDGSFFLTSKLTVDKSRWQQGNVFSCSVMHEALHNHYTQKSLCLSPGK
notes: Biparatopic heterodimer

Kd: < 0.01 nM
koff: < 1e-07 s⁻¹
kon: 430000 M⁻¹ s⁻¹
B4: D10 F05-hFc (S239C + S442C), [G4S]1 linkers (Fc fusion)
chain 1: B1 chain 1
chain 2: B2 chain 2 with V24A, L29F, S30G, K51R, E73D, D74N, S84N, A104V
notes: Biparatopic heterodimer; also called #669
